Assay results published in patent US20230167423A1, “RING NUCLEASE” (priority 2019, published 2023).
“Also recorded” adds a separate entry of the source. Read-outs that look alike come from different tables or passages of the source.

Experiments:
cA4 [1] = assay: Radiolabelled cA4 cleavage assay, single turnover kinetics; format: biochemical; settings: for cA4 cleavage / ring nuclease activity in vitro: 37° C., recombinant protein (FIG. 5); for cA4 cleavage single turnover rate constant: 50° C., 4 μM protein dimer, Csx1 buffer
cA4 [2] = assay: Substrate specificity of ring nuclease by TLC: cA4; format: biochemical; settings: multiple-turnover, 49 μM protein, 450 μM substrate, 70° C.
Method: (§1) The reactions were then deproteinised by phenol-chloroform extraction followed by chloroform extraction and products separated by TLC. Substrate degradation was visualised and imaged under short-wave ([…]) UV light.

cA6 = assay: Substrate specificity of ring nuclease by TLC: cA6; format: biochemical; settings: multiple-turnover, 49 μM protein, 450 μM substrate, 70° C.
Method: as §1

cyclic-AMP = assay: Substrate specificity of ring nuclease by TLC: cyclic-AMP; format: biochemical; settings: multiple-turnover, 49 μM protein, 450 μM substrate, 70° C.
Method: as §1

cyclic-di-AMP = assay: Substrate specificity of ring nuclease by TLC: cyclic-di-AMP; format: biochemical; settings: multiple-turnover, 49 μM protein, 450 μM substrate, 70° C.
Method: as §1

cyclic-di-GMP = assay: Substrate specificity of ring nuclease by TLC: cyclic-di-GMP; format: biochemical; settings: multiple-turnover, 49 μM protein, 450 μM substrate, 70° C.
Method: as §1

cyclic-CAMP = assay: Substrate specificity of ring nuclease by TLC: cyclic-CAMP; format: biochemical; settings: multiple-turnover, 49 μM protein, 450 μM substrate, 70° C.
Method: as §1

[3] = molecular target: T1, HEPN family ribonuclease Csx1 (Saccharolobus solfataricus, UniProt Q97YD5); assay: Deactivation of HEPN nuclease Csx1 in coupled assay with Csm complex and A26 RNA target; format: biochemical, Sulfolobus solfataricus
T1 sequence (Q97YD5 1-377): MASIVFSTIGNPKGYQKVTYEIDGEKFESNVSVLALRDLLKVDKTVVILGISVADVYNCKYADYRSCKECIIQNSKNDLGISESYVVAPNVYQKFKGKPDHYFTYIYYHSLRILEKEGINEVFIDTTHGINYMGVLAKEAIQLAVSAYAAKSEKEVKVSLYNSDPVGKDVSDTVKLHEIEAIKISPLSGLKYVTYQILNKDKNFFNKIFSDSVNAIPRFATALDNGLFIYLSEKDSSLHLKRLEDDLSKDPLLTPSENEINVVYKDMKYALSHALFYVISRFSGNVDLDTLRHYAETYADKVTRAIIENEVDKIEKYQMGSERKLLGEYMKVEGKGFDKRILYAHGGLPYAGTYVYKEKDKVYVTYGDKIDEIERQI
Method: FIG. 4. Comparison of the kinetics of the ring nucleases disclosed herein and cellular ring nucleases in deactivating the type III CRISPR defence. • a) Top panel is a phosphor image of denaturing polyacrylamide gel electrophoresis showing activation of HEPN family ribonuclease Csx1 (0.5 μM dimer) and consequent radioactively labelled RNA A1 cleavage in a coupled assay containing type III Csm CRISPR complex carrying A26 CRISPR RNA when challenged by indicated amounts of A26 RNA target to initiate cA4 synthesis. RNA A1 is not a target of Csm. Each set of three lanes after the control (c) reaction with Csx1 and labelled non-target RNA alone, is first in the absence and then the presence the ring nuclease SIRV1 gp29 (labelled “vRN”) or S. solfataricus cellular ring nuclease (cRN) Sso2081 (2 μM dimer), respectively. Whereas the SIRV1 gp29 ring nuclease is able to degrade all cA4 generated with up to 50 nM RNA A26 target, the cellular ring nuclease deactivates Csx1 and protects substrate RNA from degradation only when less than 5 nM A26 RNA target is used to initiate cA4 synthesis. Bottom panel is a phosphor image of thin-layer chromatography with reactions as above but visualizes cA4 production, by a-ATP incorporation, in the presence of indicated amounts of A26 RNA target and absence or presence of either SIRV1 gp29 or cellular ring nuclease. […]

cA4 [4] = assay: cA4 degradation capacity: Csx1 activation by HPLC-purified cA4 and deactivation by ring nuclease; format: biochemical; settings: ring nuclease 2 μM dimer, Csx1 0.5 μM dimer
Method: FIG. 4. […] RNA A1 is not a target of Csm. Each set of three lanes after the control (c) reaction with Csx1 and labelled non-target RNA alone, is first in the absence and then the presence the ring nuclease SIRV1 gp29 (labelled “vRN”) or S. solfataricus cellular ring nuclease (cRN) Sso2081 (2 μM dimer), respectively. Whereas the SIRV1 gp29 ring nuclease is able to degrade all cA4 generated with up to 50 nM RNA A26 target, the cellular ring nuclease deactivates Csx1 and protects substrate RNA from degradation only when less than 5 nM A26 RNA target is used to initiate cA4 synthesis. Bottom panel is a phosphor image of thin-layer chromatography with reactions as above but visualizes cA4 production, by a-ATP incorporation, in the presence of indicated amounts of A26 RNA target and absence or presence of either SIRV1 gp29 or cellular ring nuclease. Csx1 deactivation correlated with complete cA4 degradation. • b) Denaturing gel electrophoresis visualising activation of Csx1 (0.5 μM dimer) by indicated amounts of HPLC-purified cA4 (BIOLOG Life Sciences) and its subsequent deactivation when either SIRV1 gp29 ring nuclease (“vRN”) or cellular ring nuclease (2 μM dimer) is present to degrade cA4. The SIRV1 gp29 ring nuclease degrades 100-fold more cA4 than the cellular ring nuclease. Control reactions (c) show RNA incubated with SIRV1 gp29 or Csx1 in the absence of cA4, respectively. […]

[5] = tested on: HEPN ribonuclease StCsm6′; assay: cA6 degradation, deactivation of cA6-activated HEPN ribonuclease StCsm6′; format: biochemical, S. thermophilus
Method: Ring nuclease (Tsac_2833, 2 μM dimer) was incubated with the indicated concentration of cA6 for 60 min at 37° C. […] Control c1 is RNA in the absence of protein, c2 is RNA incubated with Tsac_2833 and c3 is RNA incubated with StCsm6′ in the absence of cA6 activator. vRN—ring nuclease.
Ring nuclease (SIRV1_114a, 2 μM; labelled “vRN”) was incubated with the indicated concentration of cA6 for 20 or 60 min at 70° C. and cooled on ice for 5 min.
When investigating cA6 degradation capacity, THSA-485A Tsac_2833 (2 μM dimer) was incubated with cA6 (50-0.5 μM) for 20 min or 60 min at 37° C. prior to adding 0.5 μM dimer StCsm6′ and 50 nM radio-labelled RNA A1. Reactions were then left to proceed for 60 min at 37° C. before quenching reactions by phenol-chloroform extraction and visualising RNA degradation by phosphor imaging following denaturing PAGE.
A deactivation assay was carried out using the S. thermophilus HEPN ribonuclease StCsm6′, a ribonuclease activated by cA6.

[6] = tested on: recombinant type III CRISPR system from Mycobacterium tuberculosis; format: cell-based, Escherichia coli

B1: B. subtilis yddf: DUF1874 protein encoded by gene yddF of Bacillus subtilis, prophage origin, SEQ ID NO. 15 (protein, listed as Archael virus)
chain: MEIAFLNSLVVTSPGFYKAEKITLDEVKQWLKHYDGRYKSFIGHKSTAQFLQKLLGIRIEQNRKTFRHMKYQKAICFSLYERYPENVLLTQRDLEKARYQFYLLTRLD
Question: Which “cA4 cleavage / ring nuclease activity in vitro” value (cA4 [1]) does the source give for B1 here?
Answer: cleave cA4 rapidly

B2: SIRV1 gp29: DUF1874 ring nuclease, ORF 114a of Sulfolobus islandicus rudivirus 1 (SIRV1), SEQ ID NO. 7 (protein, listed as Archael virus)
chain: MNKVYLANAFSINMLTKFPTKVVIDKIDRLEFCENIDNEDIINSIGHDSTIQLINSLCGTTFQKNRVEIKLEKEDKLYVVQISQRLEEGKILTLEEILKLYESGKVQFFEIIVD
Question: B2 was tested. Which “degradation of cA4 (TLC)” value (cA4 [2]) did it give?
Answer: rapidly degrades; also recorded: specific for the degradation

Question: And the “degradation of cA6 (TLC)” value (cA6)?
Answer: rapidly degrades; also recorded: specific for the degradation

Question: What about the “degradation of cyclic-AMP (TLC)” value (cyclic-AMP) of the same molecule?
Answer: does not degrade

Question: And the “degradation of cyclic-di-AMP (TLC)” value (cyclic-di-AMP)?
Answer: does not degrade; also recorded: does not recognise

Question: And the “degradation of cyclic-di-GMP (TLC)” value (cyclic-di-GMP)?
Answer: does not degrade; also recorded: does not recognise

Question: And the “degradation of cyclic-CAMP (TLC)” value (cyclic-CAMP)?
Answer: does not degrade; also recorded: does not recognise

Question: And the “cA4 cleavage single turnover rate constant” value (cA4 [1])?
Answer: 7 ± 1 min⁻¹

Question: What about the “cA4 cleavage single turnover rate constant” value (cA4 [1]; listed as SIRV1 gp29 (orf 114a)) of the same molecule?
Answer: 7.4 min⁻¹

Question: And the “de-activation of cA4-activated HEPN nuclease Csx1 compared with cRN Sso2081” value ([3]; over a range of RNA and cA4 concentrations (FIG. 4))?
Answer: far more effectively

Question: And the “amount of A26 RNA target up to which all generated cA4 is degraded / Csx1 deactivated” value ([3]; ring nuclease 2 μM dimer, Csx1 0.5 μM dimer, 70° C.)?
Answer: up to 50 nM

Question: And the “amount of cA4 degraded relative to cellular ring nuclease” value (cA4 [4])?
Answer: 100 fold

Question: And the “cA6 degradation: protection of substrate RNA from StCsm6′” value (“cA6 degradation: protection” for short) ([5]; 2 μM pre-incubated with cA6 for 20 or 60 min at 70° C.)?
Answer: clear inhibition of substrate RNA cleavage

Question: What about the “cA6 degradation: protection” value ([5]; 2 μM pre-incubated with cA6 for 20 or 60 min at 70° C., listed as SIRV1_114a) of the same molecule?
Answer: protection of the substrate RNA

B3: THSA-485A Tsac_2833: DUF1874 ring nuclease from Thermoanaerobacterium bacteriophage THSA-485A, SEQ ID NO. 6 (protein, listed as Archael virus)
chain: MFIANAFSLQMLSQFPAHIDIEEVATSAVAKLDLQSAIGHADTAVVLSGILGKDIESNRVNVQLQPGDSLIVAQLMGGRLPEGSTTLPAGFSFKFFKVTVQA
Question: B3 was tested. Which “cA4 cleavage / ring nuclease activity in vitro” value (cA4 [1]) did it give?
Answer: cleave cA4 rapidly

Question: And the “cA6 degradation: protection” value ([5]; 2 μM dimer pre-incubated with cA6 at 37° C.)?
Answer: protection of the substrate RNA; also recorded: Clear inhibition of substrate RNA cleavage

Question: What about the “effect on cA4-mediated type III CRISPR immunity (plasmid transformation)” value [6] of the same molecule?
Answer: overcomes type III CRISPR immunity

Question: What about the “effect on cA4-mediated type III CRISPR immunity (plasmid transformation)” value ([6]; listed as Tsac_2833) of the same molecule?
Answer: effective in neutralising a cA4-mediated CRISPR defence; also recorded: reduced immunity for cA4-mediated CRISPR defence

B4: Crenothrix polyspora: DUF1874 protein, sequence WP_087145848.1 from the bacterium Crenothrix polyspora, SEQ ID NO. 16 (protein, listed as Crenothrix polyspora)
chain: MTLFIINAPILTSYGDWRFEGPLSIDKTRKLLREGFTSAIGHAASAEMLARLLAMDIPVNRIAITMEAGDRALILRLLQRLPEGKVLNHHEMMATPFELALLTKLK
Question: For B4, which “cA4 cleavage / ring nuclease activity in vitro” value (cA4 [1]) is on record?
Answer: cleave cA4 rapidly
